# Measurements as given in paper PMC5792032.
# How the values were obtained:
# GST control protein = assay: GST pulldown, Western blot quantification (Li-Cor Odyssey Sa); details: parent: est. 0.78; read off a plot
# [1] = target: NS5A domain I (35-215) V67A; assay: as above; details: parent: est. 7.4; read off a plot
# [2] = target: NS5A domain I (35-215) P35A; assay: as above; details: parent: est. 7.4; read off a plot
# [3] = tested on: NS5A domain I WT (Hepatitis C virus JFH-1 (genotype 2a)); assay: filter binding; details: Binding buffer and temperature not given (as in ref 32); slot blot nitrocellulose/nylon, hyperbolic fit; protein dialyzed in 20 mM Tris-HCl pH 8.2, 150 mM …
# [4] = target: NS5A domain I (35-215) P145A; assay: GST pulldown, Western blot quantification (Li-Cor Odyssey Sa); details: parent: est. 7.4; read off a plot
Substance,response (GST control protein),response [1],response [2],Kd [3] [nM],response [4]
"NS5A domain I (35-215), wild type V67A",0.15,0.39,,,
"NS5A domain I (35-215), wild type P35A",0.34,,2.5,,
HCV 3'UTR RNA,,,,246,
"NS5A domain I (35-215), wild type P145A",0.34,,,,1.3
